Data set [1] deals with T1, TRIM25 CC-PRY/SPRY (UniProt Q14258 189-630). The data set can be described thus: ITC; ITC and filter binding: 20 mM MES pH 6.5, 75 mM NaCl, 0.5 mM TCEP (ITC 20 C, filter binding on ice); NMR: 20 mM Na phosphate pH 6.5, 150 mM NaCl, 2 mM TCEP, 293 K. As to conditions: protein: recombinant; tags: His-Trx (removed); chain copies: 2; single strand.
Data set [2] has as its target T2, TRIM25 PRY/SPRY (UniProt Q14258 439-630). The data set is described as above. The note with it: protein: recombinant; tags: His-Trx (removed); single strand.
Data set [3] deals with T2, TRIM25 PRY/SPRY. As to the kind of experiment: NMR; CSPs at site 2 only; ITC and filter binding: 20 mM MES pH 6.5, 75 mM NaCl, 0.5 mM TCEP (ITC 20 C, filter binding on ice); NMR: 20 mM Na phosphate pH 6.5, 150 mM NaCl, 2 mM TCEP, 293 K. The note with it: protein: recombinant; tags: His-Trx (removed); chain copies: 3; hairpin.
The target in data set [4] is T3, TRIM25 CC-PRY/SPRY penta-mutant (UniProt Q14258 189-630, K283A;K285A;H505E;K508E;K602E). As to the kind of experiment: ITC; no binding detected; ITC and filter binding: 20 mM MES pH 6.5, 75 mM NaCl, 0.5 mM TCEP (ITC 20 C, filter binding on ice); NMR: 20 mM Na phosphate pH 6.5, 150 mM NaCl, 2 mM TCEP, 293 K. As to conditions: protein: recombinant; tags: His-Trx (removed); chain copies: 2; hairpin. In general terms: Isothermal titration calorimetry measures the heat released or taken up as one component is titrated into another.

The target in data set [5] is T1, TRIM25 CC-PRY/SPRY. As to the kind of experiment: ITC; first of two fitted sites; ITC and filter binding: 20 mM MES pH 6.5, 75 mM NaCl, 0.5 mM TCEP (ITC 20 C, filter binding on ice); NMR: 20 mM Na phosphate pH 6.5, 150 mM NaCl, 2 mM TCEP, 293 K. As to conditions: protein: recombinant; tags: His-Trx (removed); chain copies: 2; hairpin.
The target of data set [6] is T1, TRIM25 CC-PRY/SPRY. As to the kind of experiment: ITC; second fitted site, N 0.10; ITC and filter binding: 20 mM MES pH 6.5, 75 mM NaCl, 0.5 mM TCEP (ITC 20 C, filter binding on ice); NMR: 20 mM Na phosphate pH 6.5, 150 mM NaCl, 2 mM TCEP, 293 K. The note with it: protein: recombinant; tags: His-Trx (removed); chain copies: 2; hairpin.
Data set [7] concerns the molecule itself. As to the kind of experiment: NMR titration; CC-PRY/SPRY with pre-let-7 RNA added; domain-domain interaction within the construct; 1H,15N-HSQC.
In data set [8] the target is T3, TRIM25 CC-PRY/SPRY penta-mutant. The data set can be described thus: ITC; ITC and filter binding: 20 mM MES pH 6.5, 75 mM NaCl, 0.5 mM TCEP (ITC 20 C, filter binding on ice); NMR: 20 mM Na phosphate pH 6.5, 150 mM NaCl, 2 mM TCEP, 293 K. As to conditions: protein: recombinant; tags: His-Trx (removed); chain copies: 2; hairpin.
Target sequence in this assay (Q14258 189-630 K283A/K285A/H505E/K508E/K602E): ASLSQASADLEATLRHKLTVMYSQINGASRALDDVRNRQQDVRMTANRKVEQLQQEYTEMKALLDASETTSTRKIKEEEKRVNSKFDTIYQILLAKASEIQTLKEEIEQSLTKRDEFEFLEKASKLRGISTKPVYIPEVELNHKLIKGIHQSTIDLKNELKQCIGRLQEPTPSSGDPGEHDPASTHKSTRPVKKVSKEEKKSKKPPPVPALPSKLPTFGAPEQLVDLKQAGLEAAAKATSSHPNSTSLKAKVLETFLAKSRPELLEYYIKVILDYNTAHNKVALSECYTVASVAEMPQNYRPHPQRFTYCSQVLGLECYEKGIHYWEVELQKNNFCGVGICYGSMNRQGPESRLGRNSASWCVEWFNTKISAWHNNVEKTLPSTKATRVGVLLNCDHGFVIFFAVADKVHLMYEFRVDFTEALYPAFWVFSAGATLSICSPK
Data set [9] has as its target T1, TRIM25 CC-PRY/SPRY. As to the kind of experiment: ITC; first of two fitted sites (second 106 nM); ITC and filter binding: 20 mM MES pH 6.5, 75 mM NaCl, 0.5 mM TCEP (ITC 20 C, filter binding on ice); NMR: 20 mM Na phosphate pH 6.5, 150 mM NaCl, 2 mM TCEP, 293 K. As to conditions: protein: recombinant; tags: His-Trx (removed); chain copies: 2; hairpin.
For data set [10], the target named is T1, TRIM25 CC-PRY/SPRY. The data set can be described thus: ITC; second fitted site, N 0.08; ITC and filter binding: 20 mM MES pH 6.5, 75 mM NaCl, 0.5 mM TCEP (ITC 20 C, filter binding on ice); NMR: 20 mM Na phosphate pH 6.5, 150 mM NaCl, 2 mM TCEP, 293 K. As to conditions: protein: recombinant; tags: His-Trx (removed); chain copies: 2; hairpin.
In data set [11] the target is T1, TRIM25 CC-PRY/SPRY. The data set can be described thus: filter binding; ITC and filter binding: 20 mM MES pH 6.5, 75 mM NaCl, 0.5 mM TCEP (ITC 20 C, filter binding on ice); NMR: 20 mM Na phosphate pH 6.5, 150 mM NaCl, 2 mM TCEP, 293 K. As to conditions: protein: recombinant, tags: His-Trx (removed), chain copies: 2, hairpin.

Usually Kd stands for the constant that tells how readily two partners part at equilibrium.

B1: pre-let-7 loop (ssRNA)
RNA: UAAAAGGAGAU
With B1, the Kd with TRIM25 CC-PRY/SPRY [1] stood at 4100 ± 1900 nM; in the data set with TRIM25 PRY/SPRY [2] it was 42000 ± 53000 nM.

B2: pre-let-7 stem (stem-fusion) (structured_RNA)
RNA: GUAUAGUUCAACUAUAC
On to B2, for which the binding result with TRIM25 PRY/SPRY [3] is “binds”.

B3: Lnczc3h7a-SL (structured_RNA)
RNA: UUUUAUCUGAGUUGGAGGUGAAG
Consider B3, for which the binding result in data set [4] is “no binding”. The Kd with TRIM25 CC-PRY/SPRY [5] was 486 ± 77 nM; with TRIM25 CC-PRY/SPRY [6] it was 8900 ± 4500 nM.

B4: TRIM25 CC-PRY/SPRY (aa 189-630) (domain or fragment, human, UniProt Q14258 189-630, looked up)
chain: ASLSQASADLEATLRHKLTVMYSQINGASRALDDVRNRQQDVRMTANRKVEQLQQEYTEMKALLDASETTSTRKIKEEEKRVNSKFDTIYQILLKKKSEIQTLKEEIEQSLTKRDEFEFLEKASKLRGISTKPVYIPEVELNHKLIKGIHQSTIDLKNELKQCIGRLQEPTPSSGDPGEHDPASTHKSTRPVKKVSKEEKKSKKPPPVPALPSKLPTFGAPEQLVDLKQAGLEAAAKATSSHPNSTSLKAKVLETFLAKSRPELLEYYIKVILDYNTAHNKVALSECYTVASVAEMPQNYRPHPQRFTYCSQVLGLHCYKKGIHYWEVELQKNNFCGVGICYGSMNRQGPESRLGRNSASWCVEWFNTKISAWHNNVEKTLPSTKATRVGVLLNCDHGFVIFFAVADKVHLMYKFRVDFTEALYPAFWVFSAGATLSICSPK
notes: TRIM25 coiled-coil (CC), L2 linker and PRY/SPRY domain, aa 189-630; also called TRIM25 189-630
For the molecule B4, the binding result in data set [7] was “binds”.

B5: DENV-SL (structured_RNA)
RNA: GCAGGUCGGAUUAAGCCAUAGUACGGGAAAAACUAUGCUACCUG
On to B5, for which the Kd in [8] was 363 ± 84 nM; with TRIM25 CC-PRY/SPRY [9] it was 15.2 ± 3 nM; in the data set with TRIM25 CC-PRY/SPRY [10], 106 ± 35 nM; in the data set with TRIM25 CC-PRY/SPRY [11] it was 1.63 ± 0.38 nM.

B6: roX2 stem-loop (SL7 in text, SL6 in Table 2) (structured_RNA)
RNA: GUGUAAAAUGAUGGAAUAUAUACUAUCGUUUUACGC
On to B6, for which the Kd in the data set with TRIM25 CC-PRY/SPRY [11] (label: 5' 32P) came out at 18.1 ± 2.2 nM.

Values taken from paper doi:10.1101/2020.05.04.070177, “Mechanistic insights into RNA binding and RNA-regulated RIG-I ubiquitination by TRIM25” (bioRxiv, 2020).
